Source: paper PMC5698441 (Nature Communications, 2017)

Biological target: T1, biotinylated CaM (UniProt P0DP23 1-149, biotin (EZ link NHS Biotin, two-fold molar excess))
T1 construct: calmodulin, biotin-labelled; also called biotin-CaM; biotin-labeled CaM; source: purified CaM labelled with EZ link NHS Biotin, separated from free biotin by SEC
Assay: AlphaScreen or HTRF; competition: WT or mutant 20-mer peptides AKAP79 77-96 added to biotin-CaM (10 nM) and GST-AKAP79 (1-153); emission relative to untreated; peptide concentration not given
Settings: both partners purified

alphascreen emission relative to untreated samples: 0.17 ± 0.04 relative to untreated
B1: 20-mer AKAP79 (77–96) V86A (peptide)
peptide: GAWASLKRLATRRKRSESSK
notes: AKAP79 residues 77-96 with V86A; also called V86A peptide; source: synthetic peptide (Sigma PEPscreen)
